# Test results taken from US20200087408A1 (ANAPTYSBIO, published 2020).
# T1: human IL-36R (on cells) (human, UniProt Q9HB29 20-575)
# T1 sequence (looked up): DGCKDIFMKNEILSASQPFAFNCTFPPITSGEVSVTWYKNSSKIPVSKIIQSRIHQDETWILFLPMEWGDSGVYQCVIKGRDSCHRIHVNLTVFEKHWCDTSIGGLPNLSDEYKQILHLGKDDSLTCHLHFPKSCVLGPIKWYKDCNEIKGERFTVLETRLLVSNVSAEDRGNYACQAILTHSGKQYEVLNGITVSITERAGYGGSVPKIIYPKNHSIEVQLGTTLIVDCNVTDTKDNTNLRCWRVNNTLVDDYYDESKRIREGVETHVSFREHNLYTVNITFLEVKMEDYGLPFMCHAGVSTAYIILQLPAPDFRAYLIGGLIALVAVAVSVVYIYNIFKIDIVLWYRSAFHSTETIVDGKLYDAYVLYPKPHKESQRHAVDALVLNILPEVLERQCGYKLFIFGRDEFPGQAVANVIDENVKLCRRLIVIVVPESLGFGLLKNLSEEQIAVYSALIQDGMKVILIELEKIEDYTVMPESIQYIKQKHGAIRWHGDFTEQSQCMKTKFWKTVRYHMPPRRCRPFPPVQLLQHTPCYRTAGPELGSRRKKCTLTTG
# T2: extracellular domain of human IL-36R (human, UniProt Q9HB29 20-335)
# T2 construct: extracellular domain; Immobilised on the chip in the BIACORE assay; soluble and bead-coupled in the KINEXA assay; also called soluble human IL-36R extracellular domain
# T2 sequence (looked up): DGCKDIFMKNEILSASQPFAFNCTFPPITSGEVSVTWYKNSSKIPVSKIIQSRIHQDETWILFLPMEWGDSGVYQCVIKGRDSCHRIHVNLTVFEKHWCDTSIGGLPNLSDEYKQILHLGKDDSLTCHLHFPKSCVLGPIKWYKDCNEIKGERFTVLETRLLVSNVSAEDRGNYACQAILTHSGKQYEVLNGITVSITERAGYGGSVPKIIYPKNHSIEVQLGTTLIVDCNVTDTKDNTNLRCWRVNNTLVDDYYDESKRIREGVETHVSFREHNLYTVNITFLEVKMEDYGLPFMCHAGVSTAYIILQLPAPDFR
# How the values were obtained:
# human IL-36R (on cells) [1] = target: T1, human IL-36R (on cells); assay: cell-based or functional assay
# human IL-36R (on cells) [2] = target: T1, human IL-36R (on cells); assay: cell-based or functional assay; remark: listed apart in the source
# [3] = target: T2, extracellular domain of human IL-36R; assay: BIACORE T200 SPR, human IL-36R extracellular domain immobilised, antibody injected
# Experimental: The binding affinities of various purified antibodies comprising immunoglobulin heavy chain (HC) and light chain (LC) polypeptides described herein were evaluated using BIACORE™ T200 […] assays. BIACORE™ T200 evaluation software (GE Healthcare, Buckinghamshire, United Kingdom) is used to determine antibody-antigen binding kinetics and affinity. The extracellular domain of human IL-36R was immobilized at approximately 100 RU onto a CMS sensor chip (GE Healthcare, Waukesha, Wis.) using amine coupling chemistry. HBS-EP+ buffer (0.01 M HEPES, 0.15 M NaCl, 3 mM EDTA, 0.05% Polysorbate, pH 7.6) (Teknova, Hollister, Calif.) was used to reconstitute each antibody at various concentrations Each antibody concentration was then injected for two to three minutes over immobilized antigen at a flow rate of 30 μL/min, and allowed to dissociate for 15 minutes. The surface was regenerated with 60 μL of 3 M MgCl₂ after each cycle. Association and dissociation kinetic constants (kon and koff) were fit globally using a 1:1 binding model with mass transport with the BIACORE™ T200 evaluation software in order to report on- and off-rates (ka and kd, respectively), as well as affinities (KD).
# [4] = target: T2, extracellular domain of human IL-36R; assay: KINEXA 3000 solution-phase equilibrium, soluble human IL-36R extracellular domain
# Experimental: The binding affinities of various purified antibodies comprising immunoglobulin heavy chain (HC) and light chain (LC) polypeptides described herein also were evaluated using a KINEXA® 3000 assay (Sapidyne Instruments, Boise, Id.) assays. KINEXA® technology measures the amount of unbound/free antibody molecule in solution phase after incubation with varying concentrations of antigen. Measuring binding events in the solution phase with micro beads for maximized surface area avoids mass transport limitations and mobility effects inherent to methods that measure binding to a solid phase. For each experiment, 50 μg of soluble human or cyno IL-36R extracellular domain was amine-coupled to 50 mg of UltraLink Biosupport beads (Thermo Fisher Scientific, Waltham, Mass.). […] Antibody-antigen solution was then flowed over antigen-coupled beads at a rate of 0.25 mL/min. Free antibody captured by beads was detected using ALEXA FLUOR™ 647-conjugated AffiniPure Donkey Anti-Human IgG (H+L) (Jackson ImmunoResearch, West Grove, Pa.) (500 ng/ml). The KD and/or ABC (active binding concentration) of antibody was obtained from non-linear regression analysis using a one-site homogeneous binding model in the KINEXA™ Pro Software.
# [5] = target: cyno IL-36R (BIACORE antigen of Table 4) (cynomolgus monkey); assay: BIACORE T200 SPR, cyno IL-36R
# human IL-36R (on cells) [6] = target: T1, human IL-36R (on cells); assay: cell-based or functional assay; remark: listed apart in the source
# [7] = target: cynomolgus monkey IL-36R variant 3 (on cells) (cynomolgus monkey), A0A2K5; assay: cell-based or functional assay
# [8] = target: cynomolgus IL-36R (on cells, allelic variant not stated) (cynomolgus monkey), A0A2K5; assay: cell-based or functional assay
# [9] = target: cynomolgus monkey IL-36R variant 2 (on cells) (cynomolgus monkey), A0A2K5; assay: cell-based or functional assay
# cynomolgus monkey IL-36R variant 2 (on cells) (cynomolgus monkey), A0A2K5, sequence (chain, as listed by the source mutant): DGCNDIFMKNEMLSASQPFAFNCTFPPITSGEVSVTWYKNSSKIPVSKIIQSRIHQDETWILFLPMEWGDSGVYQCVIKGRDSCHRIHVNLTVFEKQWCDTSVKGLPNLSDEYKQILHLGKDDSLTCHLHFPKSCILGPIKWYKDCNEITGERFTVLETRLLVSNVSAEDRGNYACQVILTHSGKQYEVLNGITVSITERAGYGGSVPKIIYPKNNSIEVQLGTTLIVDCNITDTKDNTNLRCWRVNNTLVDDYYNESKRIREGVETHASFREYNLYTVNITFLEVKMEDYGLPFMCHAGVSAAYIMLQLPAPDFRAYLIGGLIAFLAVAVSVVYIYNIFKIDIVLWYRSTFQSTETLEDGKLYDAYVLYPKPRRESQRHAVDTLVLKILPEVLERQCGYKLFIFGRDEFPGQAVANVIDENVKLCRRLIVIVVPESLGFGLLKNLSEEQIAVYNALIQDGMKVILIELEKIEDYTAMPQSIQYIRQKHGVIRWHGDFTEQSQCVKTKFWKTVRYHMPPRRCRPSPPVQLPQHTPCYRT
# cynomolgus IL-36R (on cells, allelic variant not stated) (cynomolgus monkey), A0A2K5, sequence (chain, as listed by the source mutant): as above
# cynomolgus monkey IL-36R variant 3 (on cells) (cynomolgus monkey), A0A2K5, sequence (chain, as listed by the source mutant): as above
Binder,"EC50 (nM), IL-8 secretion by primary human monocytes, human IL-36α (human IL-36R (on cells) [1]) [nM]","EC50 (nM), IL-8 secretion by primary human monocytes, human IL-36β (human IL-36R (on cells) [1]) [nM]","EC50 (nM), IL-8 secretion by primary human monocytes, human IL-36γ (human IL-36R (on cells) [1]) [nM]","EC50 (nM), HEK human IL-36R IL-8 luciferase reporter assay, 50 ng/ml hIL-36α (human IL-36R (on cells) [2]) [nM]","EC50 (nM), HEK human IL-36R IL-8 luciferase reporter assay, 200 ng/ml hIL-36γ (human IL-36R (on cells) [2]) [nM]",Kd [3] [nM],Kd [4] [nM],"EC50 (nM), IL-8 secretion by primary human keratinocytes, 1 ng/ml human IL-36β (human IL-36R (on cells) [6]) [nM]","EC50 (nM), IL-8 secretion by primary human keratinocytes, 10 ng/ml human IL-36α (human IL-36R (on cells) [6]) [nM]","EC50 (nM), IL-8 secretion by primary human keratinocytes, 100 ng/ml human IL-36γ (human IL-36R (on cells) [6]) [nM]","EC50 (nM), HEK cyno IL-36R IL-8 luciferase reporter assay, 300 ng/ml cIL-36γ [8] [nM]","EC50 (nM), IL-8 secretion by primary cynomolgus keratinocytes, 10 ng/ml cyno IL-36β [8] [nM]","EC50 (nM), IL-8 secretion by primary cynomolgus keratinocytes, 50 ng/ml cyno IL-36α [8] [nM]","EC50 (nM), IL-8 secretion by primary cynomolgus keratinocytes, 250 ng/ml cyno IL-36γ [8] [nM]","EC50 (nM), HEK human IL-36R IL-8 luciferase reporter assay, 20 ng/ml hIL-36β (human IL-36R (on cells) [2]) [nM]","EC50 (nM), HEK cyno IL-36R IL-8 luciferase reporter assay, 2 µg/ml cIL-36α [8] [nM]","EC50 (nM), HEK cyno IL-36R IL-8 luciferase reporter assay, 10 µg/ml cIL-36β [8] [nM]","EC50 (nM), IL-8 secretion by primary cynomolgus PBMCs, 10 ng/ml cyno IL-36β [8] [nM]","EC50 (nM), IL-8 secretion by primary cynomolgus PBMCs, 50 ng/ml cyno IL-36α [8] [nM]","EC50 (nM), IL-8 secretion by primary cynomolgus PBMCs, 250 ng/ml cyno IL-36γ [8] [nM]",also measured
"Humanized (HzD) 1D9 (APE5281) (antibody, V domains shown, also called 1D9 Humanized) VH: QVQLMQSGAEVKKPGASVKVSCKASGFTFTSYDINWVRQAPGQRLEWMGWIYPGDSSTKYNEKFKGRVTITADKSANTAYMELASLRSEDTAVYFCTRSFYTMDYWGQGTTVTVSS VL: DIVMTQSPLSLPVTPGEPASISCRSSKSLLHSNANTYLYWFLQKPGQSPQLLISRMSNLASGVPDRFSGSGSGTDFTLKISRVEAEDVGVYYCMQHLEYPFTFGQGTKLEIK",0.035,0.033,0.027,0.17,0.12,0.077,0.008,0.053,0.047,0.04,–,–,–,–,–,–,–,–,–,–,Kd [5]: 0.126 nM
"APE6904 (antibody, V domains shown, also called 18D4 Humanized) VH: DLQFQESGPGLVKPSQTLSLTCTVTGYSITADFAWNWIRQPPGKGLEWIGYISYSGDTNYNPSLKSRVTITRDTSKNQFSLKLSSVTAADTAVYFCAIRGPYSFTYWGQGTLVTVSS VL: DIQMTQSPSSLSASVGDRVTITCRASQWINNYLNWYQQKPGKAPKLLIYYTSMLHSGVPSRFSPSGSGNDYTFTISSLQPEDIATYYCQQGHTLPWTFGGGTKVEIKR",–,–,–,–,–,–,0.027,–,–,–,–,–,–,–,–,–,–,–,–,–,–

# Second part, led by results:
"EC50 (nM), IL-8 secretion by primary human monocytes, human IL-36α (human IL-36R (on cells) [1]) [nM]","EC50 (nM), IL-8 secretion by primary human monocytes, human IL-36β (human IL-36R (on cells) [1]) [nM]","EC50 (nM), IL-8 secretion by primary human monocytes, human IL-36γ (human IL-36R (on cells) [1]) [nM]","EC50 (nM), HEK human IL-36R IL-8 luciferase reporter assay, 50 ng/ml hIL-36α (human IL-36R (on cells) [2]) [nM]","EC50 (nM), HEK human IL-36R IL-8 luciferase reporter assay, 200 ng/ml hIL-36γ (human IL-36R (on cells) [2]) [nM]",Kd [3] [nM],Kd [4] [nM],"EC50 (nM), IL-8 secretion by primary human keratinocytes, 1 ng/ml human IL-36β (human IL-36R (on cells) [6]) [nM]","EC50 (nM), IL-8 secretion by primary human keratinocytes, 10 ng/ml human IL-36α (human IL-36R (on cells) [6]) [nM]","EC50 (nM), IL-8 secretion by primary human keratinocytes, 100 ng/ml human IL-36γ (human IL-36R (on cells) [6]) [nM]","EC50 (nM), HEK cyno IL-36R IL-8 luciferase reporter assay, 300 ng/ml cIL-36γ [8] [nM]","EC50 (nM), IL-8 secretion by primary cynomolgus keratinocytes, 10 ng/ml cyno IL-36β [8] [nM]","EC50 (nM), IL-8 secretion by primary cynomolgus keratinocytes, 50 ng/ml cyno IL-36α [8] [nM]","EC50 (nM), IL-8 secretion by primary cynomolgus keratinocytes, 250 ng/ml cyno IL-36γ [8] [nM]","EC50 (nM), HEK human IL-36R IL-8 luciferase reporter assay, 20 ng/ml hIL-36β (human IL-36R (on cells) [2]) [nM]","EC50 (nM), HEK cyno IL-36R IL-8 luciferase reporter assay, 2 µg/ml cIL-36α [8] [nM]","EC50 (nM), HEK cyno IL-36R IL-8 luciferase reporter assay, 10 µg/ml cIL-36β [8] [nM]","EC50 (nM), IL-8 secretion by primary cynomolgus PBMCs, 10 ng/ml cyno IL-36β [8] [nM]","EC50 (nM), IL-8 secretion by primary cynomolgus PBMCs, 50 ng/ml cyno IL-36α [8] [nM]","EC50 (nM), IL-8 secretion by primary cynomolgus PBMCs, 250 ng/ml cyno IL-36γ [8] [nM]",Binder,also measured
–,–,–,–,–,–,–,–,–,–,0.24,1.8,2.3,5.6,–,–,–,–,–,–,"Hzd 18D4 (APE7247) (antibody, V domains shown) VH: DVQFQESGPGLVKPSQTLSLTCTVTGYSITADFAWNWIRQPPGKGLEWIGYISYSGDTNYNPSLKSRVTITRDTSKNQFSLKLSSVTAADTAVYFCAIRGPYSFTYWGQGTLVTVSSA VL: DIQMTQSPSSLSASVGDRVTITCRASQWINNYLNWYQQKPGKAPKLLIYYTSMLHSGVPSRFSPSGSGNDYTFTISSLQPEDIATYYCQQGHTLPWTFGGGTKVEIKRT","EC50 (nM), IL-8 luciferase reporter assay, 300 ng/ml IL-36γ (Cyno IL-36R variant 3) [7]: 0.42 nM; EC50 (nM), IL-8 luciferase reporter assay, 300 ng/ml IL-36γ (Cyno IL-36R variant 2) [9]: 0.065 nM"
0.081,0.9,0.79,0.23,0.35,0.05,–,0.217,0.08,0.08,0.29,1.4,1.4,1,0.24,0.067,0.17,1.7,0.98,1.4,"Hzd 5D3 (APE6060) (antibody, V domains shown, also called 5D3 Humanized) VH: QVQLVQSGAEVKKPGASVKVSCKASGYTFTNYWMNWVRQAPRQGLEWMGMFHPTGDVTRLNQKFKDRVTMTRDTSTSTVYMELSSLRSEDTAVYYCARTTSMIIGGFAYWGQGTLVTVSS VL: DIVMTQTPLSLSVTPGQPASISCRSSKSLLHRNAITYFYWYLQKPGQPPQLLIYQMSNLASGVPDRFSGSGSGTDFTLKISRVEAEDVGVYYCAQNLELPLTFGGGTKVEIK",–
0.09,0.105,0.084,0.17,0.45,0.022,–,0.164,0.105,0.083,0.31,2,1.2,1.2,0.3,0.073,0.19,1.6,1.5,1.6,"Hzd 5D3 (APE6194) (antibody, V domains shown, also called 5D3 Humanized) VH: QVQLVQSGAEVKKPGASVKVSCKASGYTFTNYWMNWVRQAPRQGLEWMGMFHPYGDVTRLNQKFKDRVTMTRDTSTSTVYMELSSLRSEDTAVYYCARTTSMIIGGFAYWGQGTLVTVSS VL: DIVMTQTPLSLSVTPGQPASISCRSSKSLLHRNAITYFYWYLHKPGQPPQLLIYQMSNLASGVPDRFSGSGSGTDFTLKISRVEAEDVGVYYCAQNLELPLTFGGGTKVEIK",–
